Assay results from patent publication US20140087995A1 (published 2014).
Substitutions are numbered along the chain they refer to. Read-outs that look alike come from different tables or passages of the source. Numbered stars: 1 amine (or outer) side, 2 acyl side, 3 side chain; on linkers, the order of the positions; unused ones are H or OH. Bridge positions count the residues as written; N and C are the ends. Side chains are listed from the residue outwards. Ends that are not written are not given here. * marks the point of attachment. C20 diacid = O=C(O)CCCCCCCCCCCCCCCCCCC(=O)*; γGlu = O=C(O)[C@H](CCC(=O)[*:2])N[*:1]; AEEA = NCCOCCOCC(=O)O

T1: human calcitonin receptor (human, UniProt P30988 25-474)
T1 sequence (looked up): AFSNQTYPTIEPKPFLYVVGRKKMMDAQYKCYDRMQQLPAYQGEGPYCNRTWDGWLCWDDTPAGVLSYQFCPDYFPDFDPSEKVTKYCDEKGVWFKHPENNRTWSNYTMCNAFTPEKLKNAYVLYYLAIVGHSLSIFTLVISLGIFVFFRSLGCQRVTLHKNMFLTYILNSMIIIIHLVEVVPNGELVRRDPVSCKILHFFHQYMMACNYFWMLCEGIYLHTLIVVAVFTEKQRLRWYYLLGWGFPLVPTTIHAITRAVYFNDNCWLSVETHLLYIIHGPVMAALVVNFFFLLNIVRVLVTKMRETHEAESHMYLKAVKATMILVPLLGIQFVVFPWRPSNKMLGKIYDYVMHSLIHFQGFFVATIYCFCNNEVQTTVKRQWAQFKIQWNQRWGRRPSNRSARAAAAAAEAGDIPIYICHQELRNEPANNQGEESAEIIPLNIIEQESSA

T2: human calcitonin receptor (human, UniProt P30988 25-474)
T2 sequence (looked up): T1 sequence (looked up)

T3: human amylin 3(a) receptor (human calcitonin receptor co-expressed with RAMP-3) (human, UniProt P30988 25-474; O60896 24-148, limits assumed)
T3 sequence (looked up) 1: T1 sequence (looked up)
T3 sequence (looked up) 2: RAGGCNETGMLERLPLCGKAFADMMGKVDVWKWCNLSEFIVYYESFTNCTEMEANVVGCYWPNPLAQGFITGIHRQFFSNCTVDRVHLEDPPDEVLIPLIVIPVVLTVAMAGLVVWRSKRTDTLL

B1: N^α1-[2-[2-[2-[[2-[2-[2-[[(4S)-4-carboxy-4-(19-carboxynonadecanoylamino)butanoyl]amino]ethoxy]ethoxy]acetyl]amino]ethoxy]ethoxy]acetyl]-[Arg17,Pro21,Pro27]-h-am … (peptide)
peptide: KCNTATCATQRLANFLRHSSPNFGAIPSSTNVGSNTY
modifications: N-terminal alpha-amino acylated with C20 diacid-gGlu-2xOEG; Cys2-Cys7 disulfide; C-terminal amide
notes: analogue of human amylin; also called compound 24
B2: N^ε1-[2-[2-[2-[[2-[2-[2-[[(4S)-4-carboxy-4-(19-carboxynonadecanoylamino)butanoyl]amino]ethoxy]ethoxy]acetyl]amino]ethoxy]ethoxy]acetyl]-[Arg17,Pro21,Pro27,Glu35 … (peptide)
peptide: K([AEEA-AEEA-γGlu-C20 diacid])CNTATCATQRLANFLRHSSPNFGAIPSSTNVGSETY-NH2
modifications: disulfide 2-7; N-terminus assumed
SMILES: CC[C@H](C)[C@H](NC(=O)[C@H](C)NC(=O)CNC(=O)[C@H](Cc1ccccc1)NC(=O)[C@H](CC(N)=O)NC(=O)[C@@H]1CCCN1C(=O)[C@H](CO)NC(=O)[C@H](CO)NC(=O)[C@H](Cc1c[nH]cn1)NC(=O)[C@H](CCCNC(=N)N)NC(=O)[C@H](CC(C)C)NC(=O)[C@H](Cc1ccccc1)NC(=O)[C@H](CC(N)=O)NC(=O)[C@H](C)NC(=O)[C@H](CC(C)C)NC(=O)[C@H](CCCNC(=N)N)NC(=O)[C@H](CCC(N)=O)NC(=O)[C@@H](NC(=O)[C@H](C)NC(=O)[C@@H]1CSSC[C@H](NC(=O)[C@@H](N)CCCCNC(=O)COCCOCCNC(=O)COCCOCCNC(=O)CC[C@H](NC(=O)CCCCCCCCCCCCCCCCCCC(=O)O)C(=O)O)C(=O)N[C@@H](CC(N)=O)C(=O)N[C@@H]([C@@H](C)O)C(=O)N[C@@H](C)C(=O)N[C@@H]([C@@H](C)O)C(=O)N1)[C@@H](C)O)C(=O)N1CCC[C@H]1C(=O)N[C@@H](CO)C(=O)N[C@@H](CO)C(=O)N[C@H](C(=O)N[C@@H](CC(N)=O)C(=O)N[C@H](C(=O)NCC(=O)N[C@@H](CO)C(=O)N[C@@H](CCC(=O)O)C(=O)N[C@H](C(=O)N[C@@H](Cc1ccc(O)cc1)C(N)=O)[C@@H](C)O)C(C)C)[C@@H](C)O
notes: analogue of human amylin; also called compound 25
B3: N^α1-[(4S)-4-carboxy-4-(19-carboxynonadecanoylamino)butanoyl]-[Arg17,Pro21,Pro27,His34]-h-amylin (peptide)
peptide: B1 peptide with S34H
modifications: N-terminal alpha-amino acylated with C20 diacid-gGlu; Cys2-Cys7 disulfide; C-terminal amide
notes: analogue of human amylin; also called compound 40
B4: N^α1-[2-[2-[2-[[2-[2-[2-[[(4S)-4-carboxy-4-(19-carboxynonadecanoylamino)butanoyl]amino]ethoxy]ethoxy]acetyl]amino]ethoxy]ethoxy]acetyl]-[Glu14,Arg17,Pro21,Pro27 … (peptide)
peptide: B1 peptide with N14E
modifications: N-terminal alpha-amino acylated with C20 diacid-gGlu-2xOEG; Cys2-Cys7 disulfide; C-terminal amide
notes: analogue of human amylin; also called compound 19
B5: N^α1-[(4S)-4-carboxy-4-(19-carboxynonadecanoylamino)butanoyl]-[His14,Arg17,Pro21,Pro27,Glu35]-h-amylin (peptide)
peptide: {C20 diacid-γGlu}-KCNTATCATQRLAHFLRHSSPNFGAIPSSTNVGSETY-NH2
modifications: disulfide 2-7
SMILES: CC[C@H](C)[C@H](NC(=O)[C@H](C)NC(=O)CNC(=O)[C@H](Cc1ccccc1)NC(=O)[C@H](CC(N)=O)NC(=O)[C@@H]1CCCN1C(=O)[C@H](CO)NC(=O)[C@H](CO)NC(=O)[C@H](Cc1c[nH]cn1)NC(=O)[C@H](CCCNC(=N)N)NC(=O)[C@H](CC(C)C)NC(=O)[C@H](Cc1ccccc1)NC(=O)[C@H](Cc1c[nH]cn1)NC(=O)[C@H](C)NC(=O)[C@H](CC(C)C)NC(=O)[C@H](CCCNC(=N)N)NC(=O)[C@H](CCC(N)=O)NC(=O)[C@@H](NC(=O)[C@H](C)NC(=O)[C@@H]1CSSC[C@H](NC(=O)[C@H](CCCCN)NC(=O)CC[C@H](NC(=O)CCCCCCCCCCCCCCCCCCC(=O)O)C(=O)O)C(=O)N[C@@H](CC(N)=O)C(=O)N[C@@H]([C@@H](C)O)C(=O)N[C@@H](C)C(=O)N[C@@H]([C@@H](C)O)C(=O)N1)[C@@H](C)O)C(=O)N1CCC[C@H]1C(=O)N[C@@H](CO)C(=O)N[C@@H](CO)C(=O)N[C@H](C(=O)N[C@@H](CC(N)=O)C(=O)N[C@H](C(=O)NCC(=O)N[C@@H](CO)C(=O)N[C@@H](CCC(=O)O)C(=O)N[C@H](C(=O)N[C@@H](Cc1ccc(O)cc1)C(N)=O)[C@@H](C)O)C(C)C)[C@@H](C)O
notes: analogue of human amylin; also called compound 30
B6: N^ε1-[2-[2-[2-[[(4S)-4-carboxy-4-(19-carboxynonadecanoylamino)butanoyl]amino]ethoxy]ethoxy]acetyl]-[Ala14,Arg17,Pro21,Pro27,Pro31]-h-amylin (peptide)
peptide: K([AEEA-γGlu-C20 diacid])CNTATCATQRLAAFLRHSSPNFGAIPSSTPVGSNTY-NH2
modifications: disulfide 2-7; N-terminus assumed
SMILES: CC[C@H](C)[C@H](NC(=O)[C@H](C)NC(=O)CNC(=O)[C@H](Cc1ccccc1)NC(=O)[C@H](CC(N)=O)NC(=O)[C@@H]1CCCN1C(=O)[C@H](CO)NC(=O)[C@H](CO)NC(=O)[C@H](Cc1c[nH]cn1)NC(=O)[C@H](CCCNC(=N)N)NC(=O)[C@H](CC(C)C)NC(=O)[C@H](Cc1ccccc1)NC(=O)[C@H](C)NC(=O)[C@H](C)NC(=O)[C@H](CC(C)C)NC(=O)[C@H](CCCNC(=N)N)NC(=O)[C@H](CCC(N)=O)NC(=O)[C@@H](NC(=O)[C@H](C)NC(=O)[C@@H]1CSSC[C@H](NC(=O)[C@@H](N)CCCCNC(=O)COCCOCCNC(=O)CC[C@H](NC(=O)CCCCCCCCCCCCCCCCCCC(=O)O)C(=O)O)C(=O)N[C@@H](CC(N)=O)C(=O)N[C@@H]([C@@H](C)O)C(=O)N[C@@H](C)C(=O)N[C@@H]([C@@H](C)O)C(=O)N1)[C@@H](C)O)C(=O)N1CCC[C@H]1C(=O)N[C@@H](CO)C(=O)N[C@@H](CO)C(=O)N[C@H](C(=O)N1CCC[C@H]1C(=O)N[C@H](C(=O)NCC(=O)N[C@@H](CO)C(=O)N[C@@H](CC(N)=O)C(=O)N[C@H](C(=O)N[C@@H](Cc1ccc(O)cc1)C(N)=O)[C@@H](C)O)C(C)C)[C@@H](C)O
notes: analogue of human amylin; also called compound 72
B7: N^α1-[(4S)-4-carboxy-4-(19-carboxynonadecanoylamino)butanoyl]-[Arg17,Pro21,Pro27,Arg34]-h-amylin (peptide)
peptide: B1 peptide with S34R
modifications: N-terminal alpha-amino acylated with C20 diacid-gGlu; Cys2-Cys7 disulfide; C-terminal amide
notes: analogue of human amylin; also called compound 39
B8: N^-1-[(4S)-4-carboxy-4-(19-carboxynonadecanoylamino)butanoyl]-Gly[Arg1,His14,Arg17,Pro21,Pro27,Pro34]-h-amylin (peptide)
peptide: {C20 diacid-γGlu}-GRCNTATCATQRLAHFLRHSSPNFGAIPSSTNVGPNTY-NH2
modifications: disulfide 3-8
SMILES: CC[C@H](C)[C@H](NC(=O)[C@H](C)NC(=O)CNC(=O)[C@H](Cc1ccccc1)NC(=O)[C@H](CC(N)=O)NC(=O)[C@@H]1CCCN1C(=O)[C@H](CO)NC(=O)[C@H](CO)NC(=O)[C@H](Cc1c[nH]cn1)NC(=O)[C@H](CCCNC(=N)N)NC(=O)[C@H](CC(C)C)NC(=O)[C@H](Cc1ccccc1)NC(=O)[C@H](Cc1c[nH]cn1)NC(=O)[C@H](C)NC(=O)[C@H](CC(C)C)NC(=O)[C@H](CCCNC(=N)N)NC(=O)[C@H](CCC(N)=O)NC(=O)[C@@H](NC(=O)[C@H](C)NC(=O)[C@@H]1CSSC[C@H](NC(=O)[C@H](CCCNC(=N)N)NC(=O)CNC(=O)CC[C@H](NC(=O)CCCCCCCCCCCCCCCCCCC(=O)O)C(=O)O)C(=O)N[C@@H](CC(N)=O)C(=O)N[C@@H]([C@@H](C)O)C(=O)N[C@@H](C)C(=O)N[C@@H]([C@@H](C)O)C(=O)N1)[C@@H](C)O)C(=O)N1CCC[C@H]1C(=O)N[C@@H](CO)C(=O)N[C@@H](CO)C(=O)N[C@H](C(=O)N[C@@H](CC(N)=O)C(=O)N[C@H](C(=O)NCC(=O)N1CCC[C@H]1C(=O)N[C@@H](CC(N)=O)C(=O)N[C@H](C(=O)N[C@@H](Cc1ccc(O)cc1)C(N)=O)[C@@H](C)O)C(C)C)[C@@H](C)O
B9: N{-1}-[(4S)-4-carboxy-4-(19-carboxynonadecanoylamino)butanoyl]-Gly[Arg1,His14,Arg17,Pro21,Pro27]-h-amylin (peptide)
peptide: {C20 diacid-γGlu}-GRCNTATCATQRLAHFLRHSSPNFGAIPSSTNVGSNTY-NH2
modifications: disulfide 3-8
SMILES: CC[C@H](C)[C@H](NC(=O)[C@H](C)NC(=O)CNC(=O)[C@H](Cc1ccccc1)NC(=O)[C@H](CC(N)=O)NC(=O)[C@@H]1CCCN1C(=O)[C@H](CO)NC(=O)[C@H](CO)NC(=O)[C@H](Cc1c[nH]cn1)NC(=O)[C@H](CCCNC(=N)N)NC(=O)[C@H](CC(C)C)NC(=O)[C@H](Cc1ccccc1)NC(=O)[C@H](Cc1c[nH]cn1)NC(=O)[C@H](C)NC(=O)[C@H](CC(C)C)NC(=O)[C@H](CCCNC(=N)N)NC(=O)[C@H](CCC(N)=O)NC(=O)[C@@H](NC(=O)[C@H](C)NC(=O)[C@@H]1CSSC[C@H](NC(=O)[C@H](CCCNC(=N)N)NC(=O)CNC(=O)CC[C@H](NC(=O)CCCCCCCCCCCCCCCCCCC(=O)O)C(=O)O)C(=O)N[C@@H](CC(N)=O)C(=O)N[C@@H]([C@@H](C)O)C(=O)N[C@@H](C)C(=O)N[C@@H]([C@@H](C)O)C(=O)N1)[C@@H](C)O)C(=O)N1CCC[C@H]1C(=O)N[C@@H](CO)C(=O)N[C@@H](CO)C(=O)N[C@H](C(=O)N[C@@H](CC(N)=O)C(=O)N[C@H](C(=O)NCC(=O)N[C@@H](CO)C(=O)N[C@@H](CC(N)=O)C(=O)N[C@H](C(=O)N[C@@H](Cc1ccc(O)cc1)C(N)=O)[C@@H](C)O)C(C)C)[C@@H](C)O
notes: also called compound 99

Tests used:
Assay in all cases: cell-based or functional assay
[1] = target: T1, human calcitonin receptor
[2] = target: T2, human calcitonin receptor; remark: listed apart in the source
[3] = target: T3, human amylin 3(a) receptor (human …)

| Binder | hCTR funct. EC50 [1] [nM] | further results |
| --- | --- | --- |
| B1 | 10 |  |
| B2 | 10 |  |
| B3 | 2.68 |  |
| B4 | 5.32 |  |
| B5 | 1.68 | Ratio hCT/hAmylin funct. [1]: 12.6 |
| B6 | 4.76 |  |
| B7 | 2.52 |  |
| B8 |  | Ratio hCT/hAmylin funct. [2]: 2.9; hCTR funct. EC50 [2]: 0.179 nM; hAmylin-R funct. EC50 [3]: 0.062 nM |
| B9 |  | Ratio hCT/hAmylin funct. [2]: 10; hCTR funct. EC50 [2]: 0.818 nM; hAmylin-R funct. EC50 [3]: 0.082 nM |
